From patent US20240158474A1 (SINO BIOLOGICAL, published 2024)

Columns and labels:
Test in all cases: indirect ELISA, VLP coated at 2 µg/mL, antibody 10 ng/mL, HRP goat anti-rabbit Fc
HPV18 VLP protein = target: T1, HPV18 VLP protein (human papillomavirus type 18)
T1 construct: Complete VLP protein; no limits of the construct printed, whole entry named; also called P18SHELL

HPV35 VLP protein = target: T2, HPV35 VLP protein (human papillomavirus type 35; human …, UniProt P27232 1-472; P06416 474-499)
T2 construct: range 1-472;range 474-499; Complete VLP protein used as coating protein; also called HPV35L1(1-472L)+HPV33L1(474K-499K)
T2 sequence: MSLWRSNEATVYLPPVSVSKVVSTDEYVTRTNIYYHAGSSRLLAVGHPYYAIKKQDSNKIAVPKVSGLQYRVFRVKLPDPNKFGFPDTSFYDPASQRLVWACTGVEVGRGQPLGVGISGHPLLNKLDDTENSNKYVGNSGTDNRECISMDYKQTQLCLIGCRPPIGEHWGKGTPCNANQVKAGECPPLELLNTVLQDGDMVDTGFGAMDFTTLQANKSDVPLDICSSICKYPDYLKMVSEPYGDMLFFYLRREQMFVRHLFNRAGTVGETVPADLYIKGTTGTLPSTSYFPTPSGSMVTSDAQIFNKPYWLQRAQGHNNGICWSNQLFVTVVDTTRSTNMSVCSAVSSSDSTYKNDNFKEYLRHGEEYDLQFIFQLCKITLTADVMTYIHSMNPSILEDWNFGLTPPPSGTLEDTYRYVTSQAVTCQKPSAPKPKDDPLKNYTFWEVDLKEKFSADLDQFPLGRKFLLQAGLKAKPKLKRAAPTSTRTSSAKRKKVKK

HPV11 VLP protein = target: T3, HPV11 VLP protein (human papillomavirus type 11; human …, UniProt P04012 1-470; P06416 474-499)
T3 construct: range 1-470;range 474-499; Complete VLP protein used as coating protein
T3 sequence: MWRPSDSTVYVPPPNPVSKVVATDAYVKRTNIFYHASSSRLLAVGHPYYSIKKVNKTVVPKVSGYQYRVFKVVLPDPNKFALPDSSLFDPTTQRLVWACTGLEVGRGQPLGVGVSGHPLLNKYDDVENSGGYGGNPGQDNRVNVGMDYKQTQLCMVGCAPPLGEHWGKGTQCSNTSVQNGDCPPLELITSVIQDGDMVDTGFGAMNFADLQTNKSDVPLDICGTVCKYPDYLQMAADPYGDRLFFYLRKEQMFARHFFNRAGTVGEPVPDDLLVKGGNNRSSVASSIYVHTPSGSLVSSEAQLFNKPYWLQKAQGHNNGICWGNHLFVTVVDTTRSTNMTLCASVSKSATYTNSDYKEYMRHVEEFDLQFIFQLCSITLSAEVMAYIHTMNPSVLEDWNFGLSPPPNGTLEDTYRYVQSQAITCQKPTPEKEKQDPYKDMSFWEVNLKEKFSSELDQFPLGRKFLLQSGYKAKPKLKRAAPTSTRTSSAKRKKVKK

HPV31 VLP protein = target: T4, HPV31 VLP protein (human papillomavirus type 31; human …, UniProt P17388 1-475; P06416 474-499)
T4 construct: range 1-475;range 474-499; Complete VLP protein used as coating protein; also called P31SHELL(1-475Y)+HPV33L1(474K-499K)
T4 sequence: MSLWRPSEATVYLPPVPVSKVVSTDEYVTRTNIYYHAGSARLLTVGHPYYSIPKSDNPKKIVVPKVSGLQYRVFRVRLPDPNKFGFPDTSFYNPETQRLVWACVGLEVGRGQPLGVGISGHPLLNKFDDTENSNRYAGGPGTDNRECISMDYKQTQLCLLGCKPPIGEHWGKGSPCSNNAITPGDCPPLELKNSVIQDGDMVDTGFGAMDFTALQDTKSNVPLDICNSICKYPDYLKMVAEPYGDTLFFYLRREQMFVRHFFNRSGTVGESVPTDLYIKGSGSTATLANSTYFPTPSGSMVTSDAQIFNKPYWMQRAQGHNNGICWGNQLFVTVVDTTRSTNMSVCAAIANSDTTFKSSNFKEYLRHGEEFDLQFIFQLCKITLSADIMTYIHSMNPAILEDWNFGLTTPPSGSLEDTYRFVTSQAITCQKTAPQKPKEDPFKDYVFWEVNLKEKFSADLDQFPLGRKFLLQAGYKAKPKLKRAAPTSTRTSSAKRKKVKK

B1: monoclonal antibody HPV6-R003 (antibody, V domains shown)
VH: QQQLEESGGGLVKPGGTLTLTCKASGIDLSNYYMCWVRQAPGKGLEWIGCIYTGSGRTYYASWAKGRFTISKASSTTVTLQMTSLTAADTATYFCARDYLGWRASNIWGPGTLVTVSS
VL: ELVMTQTPSSVSAAVGGTVTINCQASQSVYSNNLVWYQQKPGQPPKLLIYGASTLASGVPSRFKGSGSGTQFTLTISDVVCDDAATYYCGGYVSDSTDGTAFGGGTEVVVKG
notes: here built from variable plus constant region so that the signal peptides are left out; In the sandwich ELISA the same antibody is used as coating antibody and, labelled with horseradish peroxidase, as detection antibody; also called anti-HPV6 L1 protein antibody
- OD450-blank (HPV18 VLP protein): 0.045 OD450
- OD450-blank (HPV35 VLP protein): 0.048 OD450
- OD450-blank (HPV11 VLP protein): 0.053 OD450
- OD450-blank (HPV31 VLP protein): 0.047 OD450
